Experimental data reported in doi:10.1101/2024.01.20.576357.

Target: SpyCatcher-VLP (virus-like particle of SpyCatcher-HBc) (Hepatitis B virus)
Experiment: cryo-EM structure

SpyCatcher-VLP (virus-like particle of SpyCatcher-HBc)
stoichiometry N (monomers per VLP): 180
